Assay results from publication PMC6907089.

What was measured:
Experiment in all cases: BioID proximity labeling, quantitative mass spectrometry
Details in all cases: inducible HEK293 cells; read off a plot
AL1A2 = biological target: AL1A2
AP2B1 = biological target: AP2B1
CCD43 = biological target: CCD43
CDKAL = biological target: CDKAL
CHM4B = biological target: CHM4B
CKSP2 = biological target: CKSP2
COPA = biological target: COPA
COPB2 = biological target: COPB2
COPB = biological target: COPB
COPD = biological target: COPD
COPE = biological target: COPE
CPIN1 = biological target: CPIN1
DBLOH = biological target: DBLOH
DBNL = biological target: DBNL
DHYS = biological target: DHYS
EFHD2 = biological target: EFHD2
EIF3D = biological target: EIF3D
ELP4 = biological target: ELP4
EMC2 = biological target: EMC2
GRWD1 = biological target: GRWD1
ICAL = biological target: ICAL
N4BP1 = biological target: N4BP1
NHLC2 = biological target: NHLC2
NSF = biological target: NSF
NSMA3 = biological target: NSMA3
PAPOA = biological target: PAPOA
RFA2 = biological target: RFA2
RFA3 = biological target: RFA3
S23IP = biological target: S23IP
SAHH2 = biological target: SAHH2
SEPT9 = biological target: SEPT9
SH3G1 = biological target: SH3G1
SNP29 = biological target: SNP29
SYAP1 = biological target: SYAP1
TBD2B = biological target: TBD2B
TBPL1 = biological target: TBPL1
TES = biological target: TES
TXND9 = biological target: TXND9
VRK2 = biological target: VRK2
WDR44 = biological target: WDR44
XIAP = biological target: XIAP
ZYX = biological target: ZYX
syntaxin 5 (STX5) = syntaxin 5 (STX5) (UniProt Q13190)
Chain of UniProt Q13190 (Q13190 whole entry): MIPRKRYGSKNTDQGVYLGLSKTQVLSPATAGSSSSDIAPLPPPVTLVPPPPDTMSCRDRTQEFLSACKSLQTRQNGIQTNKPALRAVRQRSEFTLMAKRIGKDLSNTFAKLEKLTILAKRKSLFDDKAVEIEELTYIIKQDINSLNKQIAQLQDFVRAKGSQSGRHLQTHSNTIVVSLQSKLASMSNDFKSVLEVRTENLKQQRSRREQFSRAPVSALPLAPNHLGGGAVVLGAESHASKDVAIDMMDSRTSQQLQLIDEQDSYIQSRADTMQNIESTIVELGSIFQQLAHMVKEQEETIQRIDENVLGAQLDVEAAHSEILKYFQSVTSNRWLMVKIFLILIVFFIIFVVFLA

STING R232 (from UniProt Q86WV6) G207E gave a ratio to parent (AL1A2) of 0.05, a ratio to parent (AP2B1) of 0.72 and a ratio to parent (CCD43) of 0.38. It also gave a ratio to parent (CDKAL) of 0.2, a ratio to parent (CHM4B) of 0.14 and a ratio to parent (CKSP2) of 0.41. For the same substance, the ratio to parent (COPA) was 0.04, the ratio to parent (COPB2) was 0.06 and the ratio to parent (COPB) was 0.1. For the same substance, the ratio to parent (COPD) was 0.1, the ratio to parent (COPE) was 0.28 and the ratio to parent (CPIN1) was 0.17. The ratio to parent (DBLOH) was 0.26, the ratio to parent (DBNL) was 0.24 and the ratio to parent (DHYS) was 0. The ratio to parent (EFHD2) was 0.44, the ratio to parent (EIF3D) was 0.31 and the ratio to parent (ELP4) was 0.75. The ratio to parent (EMC2) was 0, the ratio to parent (GRWD1) was 0.26 and the ratio to parent (ICAL) was 0.57. The ratio to parent (N4BP1) was 0.41, the ratio to parent (NHLC2) was 0.24 and the ratio to parent (NSF) was 0.57. For the same substance, the ratio to parent (NSMA3) was 0.28, the ratio to parent (PAPOA) was 0.96 and the ratio to parent (RFA2) was 0.43. For the same substance, the ratio to parent (RFA3) was 0.47, the ratio to parent (S23IP) was 0.19 and the ratio to parent (SAHH2) was 0.2. For the same substance, the ratio to parent (SEPT9) was 0.12, the ratio to parent (SH3G1) was 0.2 and the ratio to parent (SNP29) was 0.09. For the same substance, the ratio to parent (SYAP1) was 0.5, the ratio to parent (TBD2B) was 0.5 and the ratio to parent (TBPL1) was 0.49. It also gave a ratio to parent (TES) of 0.72, a ratio to parent (TXND9) of 0.53 and a ratio to parent (VRK2) of 0. The ratio to parent (WDR44) was 0.75, the ratio to parent (XIAP) was 0.57 and the ratio to parent (ZYX) was 0.8. It also gave a ratio to parent (syntaxin 5 (STX5)) of 0.27.
Substance “STING H232 (wild-type; wt) (from UniProt Q86WV6) G207E” has a ratio to parent (AL1A2) of 0.39, a ratio to parent (AP2B1) of 0.35 and a ratio to parent (CCD43) of 0.46. For the same substance, the ratio to parent (CDKAL) was 0.4, the ratio to parent (CHM4B) was 0.41 and the ratio to parent (CKSP2) was 0. For the same substance, the ratio to parent (COPA) was 0.31, the ratio to parent (COPB2) was 0.36 and the ratio to parent (COPB) was 0.35. For the same substance, the ratio to parent (COPD) was 0.28, the ratio to parent (COPE) was 0.22 and the ratio to parent (CPIN1) was 0.46. The ratio to parent (DBLOH) was 0.48, the ratio to parent (DBNL) was 0.47 and the ratio to parent (DHYS) was 0. For the same substance, the ratio to parent (EFHD2) was 0.38, the ratio to parent (EIF3D) was 0.23 and the ratio to parent (ELP4) was 0.38. It also gave a ratio to parent (EMC2) of 0.48, a ratio to parent (GRWD1) of 0.46 and a ratio to parent (ICAL) of 0. For the same substance, the ratio to parent (N4BP1) was 0.27, the ratio to parent (NHLC2) was 0 and the ratio to parent (NSF) was 0.37. It also gave a ratio to parent (NSMA3) of 0.21, a ratio to parent (PAPOA) of 0.4 and a ratio to parent (RFA2) of 0.32. The ratio to parent (RFA3) was 0.34, the ratio to parent (S23IP) was 0.39 and the ratio to parent (SAHH2) was 0.36. For the same substance, the ratio to parent (SEPT9) was 0.3, the ratio to parent (SNP29) was 0.26 and the ratio to parent (SYAP1) was 0.41. For the same substance, the ratio to parent (TBD2B) was 0.39, the ratio to parent (TES) was 0.47 and the ratio to parent (TXND9) was 0.36. The ratio to parent (VRK2) was 0.46, the ratio to parent (WDR44) was 0.32 and the ratio to parent (XIAP) was 0.21. It also gave a ratio to parent (ZYX) of 0.29 and a ratio to parent (syntaxin 5 (STX5)) of 0.47.
